Data on 19 sequences can be found in the DeepSol protein solubility set.

This data set in a line: soluble on expression in E. coli; label from the status in PepcDB or PDB records.
For “MKYKIFASTTPQTEPVLNKLRAVLKTWQAVENGYEYVFVLGGDGFFVSTLANYNCDSCKVVGINTGHIGFYTSFNGDDLDENFISKLTSFEFKKINLLEVKTKNHSFLVLNELAVYTNTAYPINIFIDDNHWESYRGSGLLIGPRTGSTALAKSAKGAVIFPNVDVVQIIELNPLLHPNQITIQSPIILPMQTKVEFRIKKAFKAEQFPNFYADGIKLDLKNEDTSISFQLVLSRSMFHASLKTKDFIDKLKSTFIKQSLEHHHHHH”, the “soluble on expression in E. coli” value was “soluble”. “MAKAAKRFRTPSTTRVLYVRHAHAHGRQTWGGDDNKRPLDKKGRRQAEMLVPMLLPFKPTAIYSAVPDRCQATALPLADELGLDVSVNRLFGDDAWETDPEACKKRFTDVVAQGGVPMIVGQGDIIPEMIKWFSENGTLPIDEKIKAKKGSVWVLSFHDGVFTGADYLEHHHHHH”: the “soluble on expression in E. coli” value is given as “not soluble”. “MGSDKIHHHHHHMYIESFKQHFSAIDDHRQSAKVTYPLFDVLFGSLCAVIASSNGWFEIREYILGHHSWFKKQKMFIDGIPADDTIARIVSMIEPDSFNACFLAWMKSVHQLTNGEVIAIDGKTLRGSYNRDDRSSTIHMISAYASANKLVLGQLKAEQKSNEITAIPTLLKMLDLRGALVTIDAMGCQTAIATTIIDKGGDYLLAVKNNQGNLAKAINKAFSSHRSAGLSDDHVNIEKSHGRIENRACFVLSSAELDGDFTHWEALKSIVMVESFRAVKGKTASLEYRYYISSKVLSAEQALSATREHWGIESMHWVLDVSMNEDECQIYKNNGAENLAYLRHMSLNMLQKEPTKLSIVGKRKRCLMNPAFLEKVLIAGLCAPTK”: the “soluble on expression in E. coli” value is given as “not soluble”. With “MSRRSQWKQVANGMLGDVSKARSVEERENVPEKACGFCKNFSENAYASDGRGYCKKLKVGSDIKVNPPVYVMEGQASLTVLFNSDGAGCEYFNRQDLIDTDGNEVNDPSYRRVQRQMEKAIK” the entry was “not soluble”. Turning to “MIKKVVNLIMTKERRTFSSEFKLQMVRLYKNGKLKNEIIRKYDLKPSIISNSIKQHQNTGPFNHQDNLKSDEKELIKLRKEVQHLKMEHDVLKQILKLILEHHHHHH”, the “soluble on expression in E. coli” value is “not soluble”.

As for “GSHMASMTGGQQMGRGSWKRAFLAFGSNIGDRFKHIQMALQLLSREKTVKLRNISSIFESEPMYFKDQTPFMNGCVEVETLLTPSELLKLCKKIEYEELQRVKHFDNGPRTIDLDIVMFLNSAGEDIIVNEPDLNIPHPRMLERTFVLEPLCELISPVHLHPVTAEPIVDHLKQLYDKQHDEDTLWKLVPLPYRSGVEPRFLKFKTATKLDEFTGETNRITVSPTYIMAIFNATPDSFSDGGEHFADIESQLNDIIKLCKDALYLHESVIIDVGGCSTRPNSIQASEEEEIRRSIPLIKAIRESTELPQDKVILSIDTYRSNVAKEAIKVGVDIINDISGGLFDSNMFAVIAENPEICYILSHTRGDISTMNRLAHYENFALGDSIQQEFVHNTDIQQLDDLKDKTVLIRNVGQEIGERYIKAIDNGVKRWQILIDPGLGFAKTWKQNLQIIRHIPILKNYSFTMNSNNSQVYVNLRNMPVLLGPSRKKFIGHITKDVDAKQRDFATGAVVASCIGFGSDMVRVHDVKNCSKSIKLADAIYKGLE”, the “soluble on expression in E. coli” value is recorded as “soluble”. Turning to “MAHHHHHHMDFVKELKSSQDYMNNELTYGAHNYDPIPVVLKRGKGVFVYDIEDRRYYDFLSAYSSVNQGHCHPDILNAMINQAKKLTICSRAFFSDSLGVCERYLTNLFGYDKVLMMNTGAEASETAYKLCRKWGYEVKKIPENSAKIIVCNNNFSGRTLGCVSASTDKKCKNNFGPFVPNFLKVPYDDLEALEKELQDPNVCAFIVEPVQGEAGVIVPSDSYFPGVASLCKKYNVLFVADEVQTGLGRTGKLLCTHHYGVKPDVILLGKALSGGHYPISAILANDDVMLVLKPGEHGSTYGGNPLAAAICVEALKVLINEKLCENADKLGAPFLQNLKEQLKDSKVVREVRGKGLLCAIEFKNDLVNVWDICLKFKENGLITRSVHDKTVRLTPPLCITKEQLDECTEIIVKTVKFFDDNL”, the “soluble on expression in E. coli” value is reported as “soluble”. With “MSPTGNYLNAITNRRTIYNLKPELPQGVGLDDVKRTVHVILKNTPTAFNSQVNRAVIIVGDTHKRIWDAVASAMPTAEAKKRPESCRDEAYGSVIFFTDEGPTEKLQRDFPALAAAFPTCAAHTTGAVQIQSWTALELLGLGANLQHYNDYVKSALPQDVPIAWTVQSQLVFGVPTALPEEKTFINNVINVYH” the entry was “soluble”.

With “MGSDKIHHHHHHLADVIYQAQPPLEFIPPAFNPLFLRFVHLLLPSWINWQTPITQIEADNVEVLVDLYRQFQEGKIRFMLAFRHPKTDDPFCLAYLLSQLVPKIARSQGTTLQLPIHAHFIYDRGIPLWAGSYVGWIASRLGGTPIQRGKADWTGLRSARDLFANGKFPMAAAPEGATNGLSENISPLEPGIAQLGFWCAEDLHKAERPEQVLIVPVGIKYSYVDAPWDAIANLLSELEAASGLPVNSAENASIESLYPRLLALAEHLLLLMEEFYTRFYHQKLPDSKIVNGQIPDRNEALAVRLQALLNAALLISEQYFNLQSKGSLSDRCRRVEQAGWNYIFREEFKDVKGVSAVERALGDRVAEEANARMWHMRLVESFVAVSGNYIRENPTVERFAETTLILWQMIAKIKGDKGVQRPQLGKQKVKITVGEPISISEHYPAYKENRLGARQAVADVTNDLQHALEGLI”, the “soluble on expression in E. coli” value is “not soluble”.

On to “MGSDKIHHHHHHMNSGDIPATATFVNGTVNEKAATPRIPHQRPEGCPVSITRDSRAVALLWSFMNNDSSSRIAARLREWIATAAPGARLPSTRSLVAGYQASPVTVQKALQSLTAQGLIESRPGVGTFVRAVRTARPSDYGWQTAALRSPLAPLPSASTTMRDVANNAIAFHSGYPDRELLPERLVRAALTRAARGDAALSRPPAAGLPELQSWFARELGASTPAGTTPPNPSDVVVLPGSQSGLSSIFSALAGRGQPLLMESPTYWGAILAAAQAGVRVVPVPSGPDGPDPAELARAFDETGARLFYAQPNYANPTGAQWAPGRGEEVLEVVRGKGAFLVEDDWAHDFGITTSPVPVASRDDSGHVVYLRSLTKSVSPAIRIAAVIARGPARERILADRAAESMYVSGLLQAAALDVVTQPGWQTHLRSLRHQLQARRDLLVTSIREHAPQAHIEQVPKGGLNLWARLPDATDLDRLTRDCESRGVIIAAGREWFPAEPAGAFIRLNYSGSNPGAFPEGARIIGESIERNSS”, for which the “soluble on expression in E. coli” value is on record as “not soluble”.

On to “MKIDITDYNHADEILNPQLWKEIEETLLKMPLHVKASDQASKVGSLIFDPVGTNQYIKDELVPKHWKNNIPIPKRFDFLGTDIDFGKRDTLVEVQFSNYPFLLNNTVRSELFHKSNMDIDEEGMKVAIIITKGHMFPASNSSLYYEQAQNQLNSLAEYNVFDVPIRLVGLIEDFETDIDIVSTTYADKRYSRTITKRDTVKGKVIDTNTPNTRRRKRGTIVTY”, for which the “soluble on expression in E. coli” value is “soluble”. With “MGSDKIHHHHHHMTSLFYSPLIKYRVDVLPSSELKKENINTKALVVIGDGINREKISEDLELNPLLVRIVGKDSSKEEVEYNKVVLENAWLADLAPVEEIKSIDRRSLLRGEVKKAKKVDKPIYLSEYCNGLYKACNVCEFSCPYNAIKVDKKTGVNIDYTKCTSCGLCVASCPVSAIQFPSLSQNSIFELAKVKGEKRITCYRNTKNRGVKIPCLAMLSEVDIVLLRGSGNLTFECVGCELQDNLKDFIEVIKEYNERIGGISFYSPSEKIEAKETKELNTTPQSFYNRAEARRNISDELPYILFDVSIDNNRCTLCESCVNWCPTSAIMLRRSSGVEEIDFDPMKCIGCNICVNVCPESCKLEEGKTSEIPPNIASLTKVIKVEKSKSVNKEVRKLVGDELVRCRVCGAPIGSRKSLNHVKKIMIEKGASCEDEWLERCPKHRAEYAFQKQFSFNARFKPRGDLR” the entry was “not soluble”; with “GMKTSVKFETIFPLTTAPLIQCITNEITCESMANALLYIDAKPIMADDPREFPQMFQQTSALVLNLGHLSQEREQSLLAASDYARQVNKLTVVDLVGYGASDIRNEVGEKLVHNQPTVVKGNLSEMRTFCQLVSHGRGVDGSPLDQSEEAIEELIQALRQQTQKFPQTVFLATGIQDVLVSQEQVIVLQNGVPELDCFTGTGDLVGALVAALLGEGNAPMTAAVAAVSYFNLCGEKAKTKSQGLADFRQNTLNQLSLLMKEKDWFEAVKGRVL”, “soluble”.

For the sequence “GPLGSMSFTNATFSQVLDDLSARFILNLPAEEQSSVERLCFQIEQAHWFYEDFIRAQNDQLPSLGLRVFSAKLFAHCPLLWKWSKVHEEAFDDFLRYKTRIPVRGAIMLDMSMQQCVLVKGWKASSGWGFPKGKIDKDESDVDCAIREVYEETGFDCSSRINPNEFIDMTIRGQNVRLYIIPGISLDTRFESRTRKEISKIEWHNLMDLPTFKKNKPQTMKNKFYMVIPFLAPLKKWIKKRNIANNTTKEKNISVDVDADASSQLLSLLKS”, the “soluble on expression in E. coli” value is reported as “soluble”. Regarding “MGSDKIHHHHHHMNEGKILSGLLAPHPPHLVYGENPPQNEPRSQGGWEPLRWAYDQVRENIEHLKPDVLIVHSPHWITQVGHHFLGVPRLTGRSVDPIFPNLFRYDFGMNVDVELAEACCEEATKLGLVSKMMRNPSFRVDYGTITTLHMVRPQWDIPVVGISANNTPYYLNTKEGLGEMDLLGRATREAIRKTGRRAVLLASNTLSHWHFHEEPALPEDMSKEHPERYDGYLWDVRMIELMRKGHMKEVFELLPQFIEEAFAEIKSGAFTWMHAAMGYPELAGKLHGYGTVIGTGNAVIEWNLEDVGLSRLESVA”, the “soluble on expression in E. coli” value was “not soluble”. Then “MGSDKIHHHHHHAAIPDTGNWISHHLLTSDGLTVLAAGPAFAPLKWNIGQNNMGGYKGRLLFIPYDAPSTVPMIPVKPTTNEDLITASGSFTFPSGGTYTQPIYLYSTKGKVGYKAEIQGETDGKSFKQTLEFFFPGNTPGMHAFSTLVKNTPGYFVFEDSDGQQFLMGKPGMYADVSPSFDGGKLAADQRGTAYTATCDANESAVVLGTPIDMEVIAGLKPAPSPGG”, with “not soluble”; and “MSLKRTITPVHEVQTEWVHLHYAESSIFKEVYGFVGTQGTVNLEGVRYTPVGRPSKTLLVFMHPASTLQLLPMPRELARHGAHVLCAGSRYQRNDSALIMENVVVDLGAYIRHAKEVWKYEKVVLVGWSGGGSLSLLYQSQAENPTISTTPAGDPCSIKQAGLMPADAFIFQAAHTGRARMLSEWIDPSVLDENDPDRIDPGLNLYATTCRPPYSADFLAAFRAGQRARLRRRTAWVKETLETLRRKGGQEVERGFVTHRTMADPRFLDPTIEPNDRPIGRCFMGIPETVNNGPVGIARFSTLRAWLSQWSPDDSNADGVTCAKSLTVPFLAIEHSADDAVPQSHVRQVFEAASATDKSMTVLQGATHYFLGQPEMLQQAATICLDWLAERGLHDEGHHHHHH”, with “soluble”; and “MNDPLDSLSNDEFEIIETFDPETEDREDQWSIQQSIRIEPISIQMPNTLQSQRAPSPVGSKAPESLKDEDPDRTPEASIVETPLLTETLKEDRTPMSTPLASLVNSSQSPEFTLQNMSIVSESECSNNSSLVNVADVESTEIALRTSLLLVSELKSQLQAAKMSESTLLKSNSNHEIEENKKLSEKMEVMKNEFELKMQESAASVEKVIQEKDSAIEQLKVQLAQSQQVAELWKQGAEKNSNAQYSDSKTTIDRLLEENSKLRNLVDEEVARRLEESERRKLAEDQLKHARGGSVFDPPASFVASQLAERTTYSLNLEHELITLRKELEETKEALKKSVEESSNKDEIVSALHEDQQESTRMLASNEQVINSLKQKCRQLGVLEDFSS”, with “soluble”. For “MTTATSERQKTLLFKAAERQWKEEFAGKETDIRKVDCNIYKGILYQLEIRQVFLDTSLSLKKLSALLETNQTYLSNVVNKYFGCNLKELVNTYRVEYAKELLCSRRCALTELPCSCGFASKSAFYSAFSRIVGVSPLSYQTQERRLEHHHHHH”, the “soluble on expression in E. coli” value is “soluble”.
